# Measured values published in the supplement of paper PMC10724198.
# ± gives the standard deviation of the averaged measurements.
# Test system: Saccharomyces cerevisiae
# Test: protein stability index of tFT-peptide fusion (C-terminal peptide) (PSI (0-1 scale)); higher = more stable (slower turnover)
# Conditions: genetic background: wild type; temperature: 30 C
# 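Further: PSI is a weighted mean of sequencing reads over stability bins, variants kept only with over 10 reads, mCherry proximal and sfGFP distal, peptide attached via GGGS linker.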
row,Sequence,protein stability index
1,SSNSRPTGSGGS,0.694 ± 0.1
2,GVVERGRRAGEG,0.659 ± 0.028
3,GMSRLFTYRAAS,0.72 ± 0.0091
4,GEKSSDDYEVKD,0.6554 ± 0.002
5,VRLELIRSKLSR,0.701 ± 0.022
6,GGGGMVVGEVVG,0.685 ± 0.038
7,VGGRVCQSEGVE,0.685 ± 0.0058
8,GGVCVGLWGGRG,0.709 ± 0.043
9,RNGALSVVCDYV,0.698 ± 0.15
10,PLTPPPAVHTYL,0.72 ± 0.037
11,TYKEHNKTRETG,0.686 ± 0.076
12,LRLSSYRAPRPR,0.649 ± 0.032
13,VRDVIGWGEEEY,0.708 ± 0.017
14,IPGDTLSTTTVT,0.67 ± 0.05
15,WRYFLGKGRMSF,0.742 ± 0.014
16,PRSPPPSSSTPD,0.688 ± 0.036
17,PRGLGYHGALVL,0.571
18,FFSSTVFLLFLP,0.569 ± 0.025
19,LFPRCPPPPLTT,0.653 ± 0.053
20,PPPPSHPSPPPP,0.654 ± 0.021
21,VRGTGRQLNKSM,0.662 ± 0.054
22,QFSSPPLPLLSP,0.629 ± 0.035
23,VMWVGGAAGPVV,0.663 ± 0.037
24,TLLAALIRFDAV,0.691 ± 0.041
25,VFQVFSVGTCSG,0.6451 ± 0.0039
26,GRRVRAPADFKS,0.587 ± 0.02

row,Sequence,protein stability index
1,THTPPPSPLTLP,0.671 ± 0.021
2,PTREGSDGMVGN,0.702 ± 0.021
3,WDGGGGGFGLVV,0.755 ± 0.06
4,VSEKICNCLGKT,0.657 ± 0.088
5,PEVRTNKQHQER,0.746 ± 0.055
6,RSLLLINRPTPP,0.714 ± 0.015
7,DVRNDSSLIIQI,0.688 ± 0.053
8,SHVDRVVFWYLL,0.529 ± 0.033
9,CGRPRGVEPGGA,0.754 ± 0.12
10,SLALVATWCGYR,0.688 ± 0.052
11,RNIMKQQNTSIR,0.717 ± 0.078
12,DFVRVVGDLRWE,0.587 ± 0.041
13,TKTKKKTQEGSR,0.739 ± 0.1
14,APHPTPYVRRHC,0.74 ± 0.041
15,PLCLPALPPPLP,0.676 ± 0.097
16,PPIWYAKHRPAP,0.6904 ± 0.0069
17,LLSHLPLPSSPP,0.737 ± 0.096
18,QYLKTKKEGKEF,0.698 ± 0.024
19,VVAGCLWGEYAT,0.702 ± 0.17
20,DFIEINFDLFPP,0.6382 ± 0.00098
21,LLAEPASSRFRP,0.722 ± 0.029
22,SMGLYRDVVSGH,0.665 ± 0.029
23,EKIVHEGAHGWR,0.681 ± 0.02
24,SVVSLLCQFLLG,0.673 ± 0.13
25,AVGPAGSQATIC,0.706 ± 0.1
26,VHRPFDGFSRAG,0.662 ± 0.011

row,Sequence,protein stability index
1,LVCCRRILLNTT,0.634 ± 0.089
2,PPRPPCSPLPPR,0.678 ± 0.052
3,TNRRSRLQVSSN,0.635 ± 0.08
4,LLHRALLFPAVM,0.734 ± 0.017
5,PSPTPPPPRSPS,0.721 ± 0.029
6,EVSRCRTVPVWL,0.662 ± 0.07
7,PSPLPLLPPPRP,0.645 ± 0.037
8,AGRGRGPRSAGS,0.657 ± 0.014
9,SLLLRVLCGRLS,0.5104 ± 0.0037
10,QPGDVWEFGVLL,0.73 ± 0.027
11,AFTLQSRLSSPS,0.655 ± 0.012
12,RSLWGPRVGVFA,0.594 ± 0.014
13,GKRHICFNHSGE,0.6966 ± 0.0045
14,GTAFDGGELSEG,0.739 ± 0.045
15,KHFLFSVVHFSG,0.696 ± 0.028
16,TKLKKKGTKKKR,0.662 ± 0.018
17,GGWGGGGLGGAF,0.741 ± 0.037
18,KKKKNKLRNKQE,0.656 ± 0.015
19,SLCTSVPEPPFS,0.687 ± 0.0072
20,RDRMSEGLGDRS,0.684 ± 0.059
21,WVSILRWDACSR,0.685 ± 0.014
22,KPKANTEKIPIQ,0.68 ± 0.018
23,SPTPTSLTPPDF,0.733 ± 0.049
24,PSPPPPSRLLPP,0.689 ± 0.025
25,FFPFSLFPLPPS,0.744 ± 0.066
26,RLLDLRLYVGKG,0.618 ± 0.012

row,Sequence,protein stability index
1,DLLWASLCLRSY,0.679 ± 0.021
2,VGGDRVGPEPEC,0.718 ± 0.063
3,RSTQRWAVAWSG,0.678 ± 0.09
4,TLLPPACFPTPP,0.717 ± 0.017
5,GGRRVVKSWVLG,0.66 ± 0.014
6,ASSPLFLPAIQP,0.63 ± 0.06
7,GVGFRVVRTSGR,0.6859 ± 0.0018
8,SGGRLVVCEGPG,0.65 ± 0.087
9,GVVSVFVGSLGG,0.699 ± 0.067
10,WDGWPTRAGGTG,0.7141 ± 0.0069
11,PSLSPVEVPLSR,0.759 ± 0.046
12,PTPIPLGLHSLS,0.705 ± 0.048
13,EAKRSRCESAEI,0.672 ± 0.01
14,PPPLLPAPGSTI,0.662 ± 0.0079
15,APSPPSHPAAIP,0.741 ± 0.042
16,LGVPKDALKMMS,0.685 ± 0.0078
17,EGGVGGRAPRVR,0.747 ± 0.098
18,PTTVSRPPPPSP,0.711 ± 0.009
19,PPPPSPPPILPP,0.64 ± 0.01
20,GRGVQWRAVGWE,0.748 ± 0.041
21,LYQRCVCSFREK,0.639 ± 0.016
22,LLPSPLPPLLRL,0.6494 ± 0.0018
23,IPCLPHPSLPPQ,0.757 ± 0.039
